Results on 2 molecules are retold here after PMC5655542 (2017).

The test addresses T1, H. polygyrus Alarmin Release Inhibitor (HpARI), recombinant mature 6-His and Myc-tagged protein (Heligmosomoides polygyrus).
T1 chain: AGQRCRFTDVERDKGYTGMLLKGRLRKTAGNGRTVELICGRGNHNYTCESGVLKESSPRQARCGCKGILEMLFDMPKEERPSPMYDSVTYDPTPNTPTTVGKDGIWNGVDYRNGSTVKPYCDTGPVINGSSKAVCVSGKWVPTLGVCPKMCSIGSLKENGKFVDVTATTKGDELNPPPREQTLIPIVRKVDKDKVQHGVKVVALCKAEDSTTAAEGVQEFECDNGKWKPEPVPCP
The test is described as follows: SPR; 25°C.

B1: recombinant murine IL-33, untreated (reduced, active form) (ligand)
chain: SIQGTSLLTQSPASLSTYNDQSVSFVLENGCYVINVDDSGKDQEQDQVLLRYYESPCPASQSGDGVDGKKLMVNMSPIKDTDIWLHANDKDYSVELQRGDVSPPEQAFFVLHKKSSDFVSFECKNLPGTYIGVKDNQLALVEEKDESCNNIMFKLSKI
modifications: reduced (free cysteines, no disulfides), active form; limits not given, taken as the usual commercial mature mouse IL-33 (Ser109-Ile266, UniProt chain 109-266)
On to B1, for which the koff worked out at 0.00014 s⁻¹.

B2: recombinant human IL-33, untreated (reduced, active form) (ligand)
chain: MKPKMKYSTNKISTAKWKNTASKALCFKLGKSQQKAKEVCPMYFMKLRSGLMIKKEACYFRRETTKRPSLKTGRKHKRHLVLAACQQQSTVECFAFGISGVQKYTRALHDSSITGISPITEYLASLSTYNDQSITFALEDESYEIYVEDLKKDEKKDKVLLSYYESQHPSNESGDGVDGKMLMVTLSPTKDFWLHANNKEHSVELHKCEKPLPDQAFFVLHNMHSNCVSFECKTDPGVFIGVKDNHLALIKVDSSENLCTENILFKLSET
Consider B2, for which the koff was determined as 0.004 s⁻¹.
